Test results as given in the supplement of paper PMC6757056.
± gives the standard deviation of the averaged measurements.

B1: library; a variant is named by its letters at N, in order (parent)
chain: GCUGUCACCGGUGCUUGGUACGUUAUAUUCAGCCGGUCUGAUGAGUCUNNNNNNAGACGAAACAGC

Legend:
[1] = variants of: B1; test: normalized RNA/DNA level without ligand (relative to sTRSVctl = 100) (log10 (% of sTRSVctl)); HEK293T overexpressing SLC46A1; higher = less ribozyme self-cleavage, higher mRNA level; details: without (6R,S)-folinic acid; ligand present: no
How it was run: (§1)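 Library plasmids carrying ribozyme switches linked to mCherry, or to eGFP in some ligand experiments, were transfected into HEK293T at 4 µg per 6-well well, with any ligand added 1 h earlier. Seventy-two hours on, total RNA was extracted with EDTA and reverse-transcribed, amplified, barcoded and sequenced. RNA level was RNA over DNA reads normalized to a spiked-in non-cleaving sequence or to the top sequences, then scaled and log-transformed. The top set was 25 sequences, the transform was ×100 and log10, and sequences needed ≥100 DNA reads.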

[2] = variants of: B1; test: normalized RNA/DNA level with ligand (relative to sTRSVctl = 100) (log10 (% of sTRSVctl)); HEK293T overexpressing SLC46A1; ligand concentration (+) RNA-Seq: 6 mM; higher = less ribozyme self-cleavage, higher mRNA level; details: with (6R,S)-folinic acid; ligand present: yes
How it was run: as §1

Variant | normalized RNA/DNA level without ligand (log10) [1] | normalized RNA/DNA level with ligand (log10) [2]
GCUGUCACCGGUGCUUGGUACGUUAUAUUCAGCCGGUCUGAUGAGUCUGCGCGUAGACGAAACAGC | 2.055 ± 0.011 | 2.04 ± 0.056
GCUGUCACCGGUGCUUGGUACGUUAUAUUCAGCCGGUCUGAUGAGUCUUCGGACAGACGAAACAGC | 2.048 ± 0.0021 | 2.0514 ± 0.00022
GCUGUCACCGGUGCUUGGUACGUUAUAUUCAGCCGGUCUGAUGAGUCUCCGGACAGACGAAACAGC | 2.05 ± 0.0016 | 2.042 ± 0.016
GCUGUCACCGGUGCUUGGUACGUUAUAUUCAGCCGGUCUGAUGAGUCUCCGGAAAGACGAAACAGC | 2.005 ± 0.0036 | 2.01 ± 0.052
GCUGUCACCGGUGCUUGGUACGUUAUAUUCAGCCGGUCUGAUGAGUCUCCGGAUAGACGAAACAGC | 2.017 ± 0.0056 | 2.05 ± 0.059
GCUGUCACCGGUGCUUGGUACGUUAUAUUCAGCCGGUCUGAUGAGUCUCCGGAGAGACGAAACAGC | 1.931 ± 0.0037 | 2.024 ± 0.011
GCUGUCACCGGUGCUUGGUACGUUAUAUUCAGCCGGUCUGAUGAGUCUUCGCUAAGACGAAACAGC | 2.021 ± 0.015 | 2.07 ± 0.035
GCUGUCACCGGUGCUUGGUACGUUAUAUUCAGCCGGUCUGAUGAGUCUUCGCUUAGACGAAACAGC | 2.033 ± 0.019 | 2.01 ± 0.081
GCUGUCACCGGUGCUUGGUACGUUAUAUUCAGCCGGUCUGAUGAGUCUUCGCUGAGACGAAACAGC | 2.01 ± 0.021 | 2.06 ± 0.037
GCUGUCACCGGUGCUUGGUACGUUAUAUUCAGCCGGUCUGAUGAGUCUUCGCUCAGACGAAACAGC | 2.04 ± 0.028 | 2.04 ± 0.059
GCUGUCACCGGUGCUUGGUACGUUAUAUUCAGCCGGUCUGAUGAGUCUUCGGCGAGACGAAACAGC | 1.997 ± 0.011 | 2.05 ± 0.046
GCUGUCACCGGUGCUUGGUACGUUAUAUUCAGCCGGUCUGAUGAGUCUUCGGCAAGACGAAACAGC | 2.03 ± 0.029 | 2.04 ± 0.034
GCUGUCACCGGUGCUUGGUACGUUAUAUUCAGCCGGUCUGAUGAGUCUCCGGCAAGACGAAACAGC | 2.108 ± 0.021 | 2.049 ± 0.016
GCUGUCACCGGUGCUUGGUACGUUAUAUUCAGCCGGUCUGAUGAGUCUCCGGCCAGACGAAACAGC | 2.094 ± 0.013 | 2.03 ± 0.013
GCUGUCACCGGUGCUUGGUACGUUAUAUUCAGCCGGUCUGAUGAGUCUCCGGCGAGACGAAACAGC | 2.05 ± 0.025 | 2.05 ± 0.038
GCUGUCACCGGUGCUUGGUACGUUAUAUUCAGCCGGUCUGAUGAGUCUACGGAAAGACGAAACAGC | 1.965 ± 0.0049 | 2.024 ± 0.0076
GCUGUCACCGGUGCUUGGUACGUUAUAUUCAGCCGGUCUGAUGAGUCUACGGACAGACGAAACAGC | 2.018 ± 0.015 | 2.01 ± 0.03
GCUGUCACCGGUGCUUGGUACGUUAUAUUCAGCCGGUCUGAUGAGUCUACGGAGAGACGAAACAGC | 1.839 ± 0.0062 | 2.029 ± 0.014
GCUGUCACCGGUGCUUGGUACGUUAUAUUCAGCCGGUCUGAUGAGUCUGCGGAAAGACGAAACAGC | 1.978 ± 0.007 | 2.02 ± 0.048
GCUGUCACCGGUGCUUGGUACGUUAUAUUCAGCCGGUCUGAUGAGUCUGCGGAUAGACGAAACAGC | 2.021 ± 0.0026 | 2.04 ± 0.042
GCUGUCACCGGUGCUUGGUACGUUAUAUUCAGCCGGUCUGAUGAGUCUGCGGACAGACGAAACAGC | 1.972 ± 0.0066 | 2.05 ± 0.029

Variant | normalized RNA/DNA level without ligand (log10) [1] | normalized RNA/DNA level with ligand (log10) [2]
GCUGUCACCGGUGCUUGGUACGUUAUAUUCAGCCGGUCUGAUGAGUCUGCGCUGAGACGAAACAGC | 2.11 ± 0.022 | 2.1 ± 0.024
GCUGUCACCGGUGCUUGGUACGUUAUAUUCAGCCGGUCUGAUGAGUCUGCGCUUAGACGAAACAGC | 2.053 ± 0.018 | 2.048 ± 0.015
GCUGUCACCGGUGCUUGGUACGUUAUAUUCAGCCGGUCUGAUGAGUCUGCGCUCAGACGAAACAGC | 2.05 ± 0.049 | 2.01 ± 0.043
GCUGUCACCGGUGCUUGGUACGUUAUAUUCAGCCGGUCUGAUGAGUCUGCGGCGAGACGAAACAGC | 2.07 ± 0.023 | 2.1 ± 0.061
GCUGUCACCGGUGCUUGGUACGUUAUAUUCAGCCGGUCUGAUGAGUCUGCGGCCAGACGAAACAGC | 2.072 ± 0.011 | 2.077 ± 0.02
GCUGUCACCGGUGCUUGGUACGUUAUAUUCAGCCGGUCUGAUGAGUCUGCGGCAAGACGAAACAGC | 2.071 ± 0.0038 | 2.07 ± 0.048
GCUGUCACCGGUGCUUGGUACGUUAUAUUCAGCCGGUCUGAUGAGUCUCCGCUGAGACGAAACAGC | 2.047 ± 0.0097 | 2.067 ± 0.012
GCUGUCACCGGUGCUUGGUACGUUAUAUUCAGCCGGUCUGAUGAGUCUCCGCUAAGACGAAACAGC | 2.01 ± 0.019 | 2.02 ± 0.043
GCUGUCACCGGUGCUUGGUACGUUAUAUUCAGCCGGUCUGAUGAGUCUCCGCUCAGACGAAACAGC | 2.112 ± 0.0092 | 2.09 ± 0.081
GCUGUCACCGGUGCUUGGUACGUUAUAUUCAGCCGGUCUGAUGAGUCUCCGCUUAGACGAAACAGC | 2.04 ± 0.024 | 2.0508 ± 0.0014
GCUGUCACCGGUGCUUGGUACGUUAUAUUCAGCCGGUCUGAUGAGUCUACGCUAAGACGAAACAGC | 2.013 ± 0.018 | 2.03 ± 0.06
GCUGUCACCGGUGCUUGGUACGUUAUAUUCAGCCGGUCUGAUGAGUCUACGCUCAGACGAAACAGC | 2.053 ± 0.015 | 2.05 ± 0.036
GCUGUCACCGGUGCUUGGUACGUUAUAUUCAGCCGGUCUGAUGAGUCUACGCUGAGACGAAACAGC | 2.015 ± 0.0048 | 2.057 ± 0.015
GCUGUCACCGGUGCUUGGUACGUUAUAUUCAGCCGGUCUGAUGAGUCUCCGCGUAGACGAAACAGC | 2.05 ± 0.026 | 2.054 ± 0.015
GCUGUCACCGGUGCUUGGUACGUUAUAUUCAGCCGGUCUGAUGAGUCUACGGCCAGACGAAACAGC | 2.117 ± 0.009 | 2.06 ± 0.056
GCUGUCACCGGUGCUUGGUACGUUAUAUUCAGCCGGUCUGAUGAGUCUACGGCGAGACGAAACAGC | 2.015 ± 0.0037 | 2.0489 ± 0.00014
GCUGUCACCGGUGCUUGGUACGUUAUAUUCAGCCGGUCUGAUGAGUCUACGCGGAGACGAAACAGC | 1.965 ± 0.004 | 2.03 ± 0.066
GCUGUCACCGGUGCUUGGUACGUUAUAUUCAGCCGGUCUGAUGAGUCUACGCGUAGACGAAACAGC | 2.022 ± 0.0046 | 2.02 ± 0.018
GCUGUCACCGGUGCUUGGUACGUUAUAUUCAGCCGGUCUGAUGAGUCUUCGCGUAGACGAAACAGC | 2.033 ± 0.0037 | 2.04 ± 0.032
GCUGUCACCGGUGCUUGGUACGUUAUAUUCAGCCGGUCUGAUGAGUCUUCGCGGAGACGAAACAGC | 2.067 ± 0.0045 | 2.084 ± 0.02
